Measured values published in patent US12337037B2, “Taxol conjugate compounds, pharmaceutical compositions comprising the same, and methods for their use” (N1 Life, Inc, priority 2021, dated 2025).

How the values were obtained:
Stability in plasma, rat = format: in vitro ADME; details: for half-life: 37° C., read-out: Mean T1/2 (converted)
Experimental: Working solutions of test compounds were prepared in PBS (pH 7.4). Propantheline was used as positive control for human, monkey, dog and mouse plasma in the assay. Mevinolin was used as positive control for rat plasma in this assay. 1 mM propantheline working solution was prepared in acetonitrile. 1 mM mevinolin working solution was prepared in DMSO. Incubation buffer of 475 μL plasma for each cell was added into the incubation plate and pre-warmed at 37° C. for 15 minutes. After the pre-incubation, 25 μL of working solution (test compounds or control compounds) was spiked to plasma. For Compound 5 and Compound 3, the final concentration of organic concentration was 0%. For Taxol, the final concentration of organic solvents was 0.25%. The assay was performed in duplicate. The reaction samples were incubated at 37° C. Aliquots of 50 μL were taken from the reaction samples at 0, 0.25, 0.5, 1, 2, 4, 6, 8 and 24 hours. The reactions were stopped by the addition of 450 μL of ice-cold quench solution (methanol with 2% FA containing internal standards). All samples were vortexed for 10 minutes, following by centrifugation at 3,220 g for 30 minutes to precipitate proteins. 100 μL of the supernatant from each well was transferred to a new plate. The supernatant was diluted with ultrapure water. Samples were analyzed by LC-MS/MS. All calculations were carried out using Microsoft Excel. Peak area ratios were determined from extracted ion chromatograms. Percent compounds remaining at each time point were calculated by the following equation: Remaining Percentaget min(%)=Peak Area Ratiot min/Peak Area Ratio0 min×100
Peak Area Ratiot min is peak area ratio of control and test compounds at t min; and
Peak Area Ratio0 min is peak area ratio of control and test compounds at zero time point.
The slope value, k, was determined by linear regression of the natural logarithm of the remaining percentage of the parent drug vs. incubation time curve.
The in vitro half-life (in vitro t1/2) was determined from the slope value: in vitro t1/2=(0.693/k)

[1] = In-life pharmacokinetics, single IP dose; details: CD-1 mice
Experimental: General Procedure: A single-dose study was conducted in CD-1 mice. Groups (12 animals in each group) were administered an intraperitoneal (IP) dose of either Taxol (10 mg/kg), Compound 3 (38.4 mg/kg), or Compound 5 (38.4 mg/kg). Serial or terminal plasma samples (n=3 per timepoint) were collected from study animals at pre-determined times post-dose. Each mouse was serial bled 2 times (orbital bleeds) and one terminal bleed. The samples were collected in pre-chilled tubes for all steps. Upon completion of the in-life phase, the samples were analyzed using LC-MS/MS.
Assay Procedures: For analysis of analytes in mouse plasma, a 50.0 μL aliquot of each study sample was extracted with protein precipitation using 200 μl of 5% formic acid in methanol. Internal standards were added by adding 25.0 μL methanol containing 250 ng/mL tolbutamide and 1000 ng/mL Taxol-d5.
For Compound 5 and Compound 3 analysis, following centrifugation at 4000 rpm for 10 minutes, 150 μL of the supernatant was transferred to a clean 96 well collection plate for LC-MS/MS analysis.
For Taxol analysis, following centrifugation at 4000 rpm for 10 minutes, 75.0 μL of the supernatant was transferred into a clean 96 well collection plate containing 75.0 μL of deionized water. The plate was then capped and vortexed at 1650 rpm for 3 minutes prior to LC-MS/MS analysis.
Preparation of Standards and Quality Controls: Calibration standards of Compound 3 in mouse plasma were prepared on wet ice in blank mouse plasma at concentrations of 5.00, 10.0, 50.0, 100, 200, 250, 450, and 500 ng/mL. The low quality control ([LQC], 15.0 ng/mL), medium quality control ([MQC], 120 ng/mL) and high quality control ([HQC], 400 ng/mL) were prepared in blank mouse plasma.
Calibration standards of Taxol in mouse plasma were prepared on wet ice in blank mouse plasma at concentrations of 2.50, 5.00, 25.0, 125, 625, 1250, 2250, and 2500 ng/mL. The LQC, (7.50 ng/mL), MQC (120 ng/mL), and HQC (2000 ng/mL) were prepared in blank mouse plasma.
Sample Analyses: Mouse plasma samples were received from the in-life and were stored in a freezer set to −80° C.
Study samples were analyzed in 2 batches. At a minimum, each batch included the following: one set of calibration standards, a matrix blank (blank mouse plasma), a control-zero sample (blank mouse plasma with internal standard), and duplicate QC samples at 3 concentration levels (low, medium, and high) in addition to the study samples. Within each batch, the study samples were bracketed by calibration standards or QC samples.
Data Acquisition and Processing: The LC-MS/MS data acquisition was performed on an Agilent 1290 Infinity II HPLC system coupled with an AB SCIEX API 6500+ mass spectrometer. Chromatograms were integrated using Analyst 1.6.3 software. A weighted (1/x2, x=concentration) linear regression was used to generate the calibration curves and the regression was performed using Analyst 1.6.3 software. The concentration of the analyte in the samples was calculated using the peak area ratios of analyte to internal standard based on the calibration curve.

SKOV-3-GFP cells = assay: Elimination of ascites; format: in vivo, mice; details: SKOV-3-GFP cells injected into the peritoneal cavity; Compound 3 9.6 mg/kg, Taxol 10 mg/kg
Experimental: Following the procedure described in Example 5, mice injected with SKOV-3-GFP cells (a cell suspension of 6×10^6/120 μL/mouse or 8×10^6/120 μL/mouse injected into the peritoneal cavity) were also studied for the formation of ascites. Mice were administered vehicle (PBS), Taxol (10 mg/kg), or Compound 3 (9.6 mg/kg).
FIG. 16 and FIG. 18 are images of mice administered vehicle following an injection of SKOV-3-GFP cells (6×10^6/120 μL/mouse or 8×10^6/120 μL/mouse, respectively). […] FIG. 17A and FIG. 17B are images of two mice administered Compound 3 (9.6 mg/kg, equimolar to 2.5 mg/kg Taxol) following an injection of SKOV GFP cells (6×10^6/120 μL/mouse).

[2] = analyte: Taxol, IP single dose, Cmpd 3 / Cmpd 5 38.4 mg/kg, Taxol 10 mg/kg
[3] = analyte: the administered conjugate, 38.4 mg/kg IP single dose

SMILES	half-life (Stability in plasma, rat)	Taxol/Cmpd AUC Ratio ([1]; 38.4 mg/kg IP single dose)	Cmax of parent compound, fold higher than that of Compound 3 ([1]; 38.4 mg/kg IP)	AUMC0-t (h*h*nmol/L) [1, 2]	AUMC0-t (h*h*nmol/L) [1, 3]	formation of ascites (SKOV-3-GFP cells)	Percent Increase of T1/2, Compound 3 over Compound 5 (Stability in plasma, rat)	AUC ratio Taxol/compound, times higher than AUC ratio of Taxol/Compound 5 ([1]; 38.4 mg/kg IP)	T1/2 of released Taxol, longer than that of Taxol released from Compound 5 ([1]; 38.4 mg/kg IP)
CC(=O)N[C@H](CSSCCCC(=O)O[C@@H](C(=O)O[C@H]1C[C@@]2(O)[C@@H](OC(=O)c3ccccc3)[C@@H]3[C@]4(OC(C)=O)CO[C@@H]4C[C@H](O)[C@@]3(C)C(=O)[C@H](OC(C)=O)C(=C1C)C2(C)C)[C@@H](NC(=O)c1ccccc1)c1ccccc1)C(=O)N[C@H](CCCNC(=N)N)C(=O)N[C@H](CCCNC(=N)N)C(=O)N[C@H](CCCNC(=N)N)C(=O)N[C@H](CCCNC(=N)N)C(=O)N[C@H](CCCNC(=N)N)C(=O)N[C@H](CCCNC(=N)N)C(=O)N[C@H](CCCNC(=N)N)C(=O)N[C@H](CCCNC(=N)N)C(N)=O [Compound 5, Ac-D-Cysteine (paclitaxel-4-mercaptobutanoate)-D-Arginine8-NH2]	18 min	3.942	over 100 fold	3274.99 h*h*nmol/L	830.67 h*h*nmol/L	–	–	–	–
CC(=O)O[C@H]1C(=O)[C@@]2(C)[C@H]([C@H](OC(=O)c3ccccc3)[C@]3(O)C[C@H](OC(=O)[C@H](O)[C@@H](NC(=O)c4ccccc4)c4ccccc4)C(C)=C1C3(C)C)[C@]1(OC(C)=O)CO[C@@H]1C[C@@H]2O [Taxol, paclitaxel]	–	–	–	–	–	formation of malignant as cites	–	–	–
CC(=O)N[C@@H](CSSCCCC(=O)OC(C(=O)O[C@H]1C[C@@]2(O)[C@@H](OC(=O)c3ccccc3)[C@@H]3[C@]4(OC(C)=O)CO[C@@H]4C[C@H](O)[C@@]3(C)C(=O)[C@H](OC(C)=O)C(=C1C)C2(C)C)[C@@H](NC(=O)c1ccccc1)c1ccccc1)C(=O)N[C@H](CCCNC(=N)N)C(=O)N[C@H](CCCNC(=N)N)C(=O)N[C@H](CCCNC(=N)N)C(=O)N[C@H](CCCNC(=N)N)C(=O)N[C@H](CCCNC(=N)N)C(=O)N[C@H](CCCNC(=N)N)C(=O)N[C@H](CCCNC(=N)N)C(=O)N[C@H](CCCNC(=N)N)C(N)=O (stereo partly drawn) [Compound 3, Ac-L-Cysteine (paclitaxel-4-mercaptobutanoate)-D-Arginine8-NH2]	27 min	81.84	–	72,372.302 h*h*nmol/L	26.304 h*h*nmol/L	No bloody ascites were observed	50%	20 times	33.3%
